In PMC11401214, “A new generation of nanobody research tools using improved mass spectrometry-based discovery methods” (The Journal of Biological Chemistry, 2024):
Changes are numbered by the printed parent chain.

B1: LaTdT-9 (VHH)
VHH: QVQLVESGGGLVQPGDSLMLSCVISGHTFTNFRMGWFRQAPGKEREFVAGITWLFGRTDYADSVQGRFTISRDKGKDTMYLQMDSLKPEDTGVYTCAVQSGVLAYPMREGFYDIWGQGTHVTVS
B2: LaTdT-2 (VHH)
VHH: DVQLVESGGGLVQAGDSLRLSCAFSGSAFDTYAMGWFRQAPGKEREFVSAITWSGGNTYYADSAKGRFTISRDDAKNTVYLQMNSLKPEDAATYYCAANRYGSSWSPLTKMGQYEHWGQGTQVTVS
B3: LaTdT-45 (VHH)
VHH: B2 VHH with D1Q
B4: LaTdT-10 (VHH)
VHH: DVQLVESGGRLVQDGGSLRLSCEVSGGTFDTFAMGWFRQAPGKEREFVSAITWSGGNTYYGDSVKGRFTISRNNVKRTVYLQMISLKPEDTGVYYCAADPYGSSWSPLQKEGQYDYWGQGTQVTVS
B5: LaTdT-44 (VHH)
VHH: B4 VHH with D1Q
B6: LaTdT-1 (VHH)
VHH: DVQLVESGGGLVPAGGSLRLSCAASTSDLFSRYTMGWFRQAPGKEREFVSAITGMSSMTKYADSVKGRFTVSRDNRKATMYLQMDSLKPEDTAVYYCAAHTTTAAATPQSMGLMLKYDHWGQGTEVTVS
B7: LaTdT-39 (VHH)
VHH: QVQLVESGGGLVQAGESLQLSCAASGGTLRDAIVGWFRQARGKEREFLASITWSGLSTNYSDSVKGRFVISRANPQNTAYLQMNSLKPEDTAIYYCAAKIGAFGLADEFRTVPQYDSWGQGTQVTVS
B8: LaTdT-38 (VHH)
VHH: QVQLVESGGGLVQAGGSLRLSCAASGRSFSGNNMGWFRQVSGTEREFVAAISWSGLITEYSGAVKGRFTISRDNAKNTLYLQMNSLKPEDTAVYSCAADGRDVQLPGRSEYDYNYWGQGTQVTVS
B9: LaTdT-8 (VHH)
VHH: QVQLVESGGGLVQAGDSLRLSCADAGLPYAFNHYGMAWFRQAPGKEREFVAGTSGGMTYYGDSVPDRFSFSRDNDKKTVHLHINSLKPEDTAVYYCAARLGGRYEDASDYDVWGQGTQVTVS
B10: LaG94-4 (VHH)
VHH: DVQLVESGGGLVQAGGSLRLSCAASGDTSSIHFWEWYRQAPGKQRELVATANNGDFTHLQDSVKGRFTISKDNAKSTVYLQMNDLKPEDTAVYLCYARSYSNSNFWGQGTQVTVS
B11: LaG94-8 (VHH)
VHH: QVQLVESGGGLVQAGGSLRLSCAASGRTFMNYAMGWFRQAPGKGREFVASISWTGETSTYADFVKGRFTISRDNAKNTVYLQMDSLKPEDTAVYRCAAKRATDFDDTVREAAEADYWGQGTQVTVS
B12: LaG94-10 (VHH)
VHH: QVQLVESGGGLVQAGGSLRLSCAASGLTLRVYDVTWFRQAPGKEREFVGTVNRNGVVTDYADSVKGRFTISRDNPKNTIYLQMNSLKPEDTAVYYCAAKTRPKLSTLWDEYIYRGQGTQVTVS
B13: LaG94-18 (VHH)
VHH: QVQLVESGGGLVQAGGSLRLSCVASGRTFSTSAMAWWRQAPGKEREFVAAISWNVGTTYYPDSVKGRFTISRDKAQNAVYLQMNSLKPEDTAVYYCAARVTGYFGDQVRRADDYRYWGQGTQVTVS
B14: LaG94-15 (VHH)
VHH: QVQLVESGGGAVQSGGSLSLSCAASGGIRSISAMTWFRQAPGREREFVAAVTRTLGTTYYTDSVKGRFTISRDSVKGTLYLRMNNMRPEDAAVYYCAARTRGFSTKVALETTDGMDYWGKGTLVTVS
B15: LaG94-6 (VHH)
VHH: QVQLVESGGGAVQAGGSLRLSCAASGLTFSLYTMGWFRQAPEKEPEFVAYISKSGDTTTYADSVKGRFTIGRDNAKSTVYLQMNSLKSEDTAVYYCAASIKREITPNSIYRGQGTQVTVS
B16: LaG94-12 (VHH)
VHH: QVQLVESGGRLVQAGGSLRLSCAVSGGTFSLYSLGWFRQAPGKEREFVAAFSREDGTTSFADSVKGRFTMFRDGTKNTVYLQMNSLKQEDTAVYSCAATVRAQPSYSWSSYVYRGLGTQVTVS
B17: LaG94-5 (VHH)
VHH: QVQLAESGGGLVQAGGSLRLSCAASGRTFAMGWFRRAPGKEREFVASMSRSGLDTHYADSVKGRFTISRDNALNTVYLQTDSLKPEDTGDYFCAVGLRYWSLSGDYIRREKYDVWGQGTQVTVS
B18: LaG94-2 (VHH)
VHH: DVQLVESGGALVQAGGSLRLSCEFSGGTFNLYGIGWFRQAPEQDHEFVAGVSRYGSTYESVSVKGRFTSSRDNAKNSAYLEMNTLKPEDTGVYTCAATVREQVPTNFGSYIYRGQGTQVTVS
B19: LaG94-3 (VHH)
VHH: QVQLVESGGGLVQAGGSLRLSCTASGGTVSSSGMGWFRQSSGNDRDFVAFITPTGPTTWYEESVNSRFTVSRDNAKNTIYLQMKSLRPEDTAIYYCAAGNIGRDSRTYPYWGQGTQVTVS
B20: LaG94-9 (VHH)
VHH: QVQLVESGGGLVQPGGSLRLSCAASGGTFDTHTMGWFRQAPGKQREFVSAIRLHGVGTYYADSVKGRFTISRENAKNTVHLQMNNLKPEDTAVYYCAADRNWSRATEKEEYDYWGQGTQVTVS
B21: LaG94-1 (VHH)
VHH: QVQLVESGGGLVQTGDSLRLSCRASGLTLSVYSTGWFRQAPGKEHENVAWISRSGDETYYEDSVKGRFTISRDNAKNTVYLQMNDLKPEDMARYYCAASNRGRTTAWNLYIYRGQGTQVTVS
B22: GST-3 (VHH)
VHH: QVQLVESGGGLVQPGGSLRLSCADSGRIFSDYTMAWFRQPPGKEREFVASINRSGLGTYYADSVKGRFTVTRDNAKNMVYLQMNSLTVEDTAVYYCGARWGGSYIDPREGMYDFRGQGTQVTVS
notes: anti-GST nanobody; source: ArcticExpress (DE3) cells, purified from periplasm
B23: GST-8 (VHH)
VHH: QVQLVESGGDLVQAGGSLRLSCAASGSISAAYDMGWFRQVPGKQRELVASLGSGGFSAYADSVKGRFTVSRDNAKNTVYLQMNSLKPEDTGVYYCAARTPFDIWTTGRWGEYDYWGQGTQVTVS
notes: as for B22
B24: GST-1 (VHH)
VHH: QVQLVESGGGLVQAGGSLRLSCVCVGRAFGVYAMGWFRQSPGKEREFVAAITWNGGSIDYADSVKGRFAISRDNPPNTVYLQMNSLKPEDTAVYYCAKYRNNYYNEAPNSWGQGTQVTVS
notes: as for B22
B25: GST-2 (VHH)
VHH: B24 VHH with C24V, V31A, D59T, Q82E, R100T, N109K
notes: as for B22
B26: GST-4 (VHH)
VHH: B24 VHH
notes: as for B22
B27: GST-6 (VHH)
VHH: QVQLVESGGGLVQPGESLRLSCAASGFTFSSHRMNWLRQAPGKGLEWVSTTSTGGGSAATYYVNSVKGRFTVSRDDAKNMLYLQMNSLKPEDTARYYCAIPESPGRPFGSTWSEYRYWGQGTQVTVS
notes: as for B22
B28: GST-5 (VHH)
VHH: QVQLVESGGGLVQAGGSLRLSCVVTGRAFGAYAMGWFRQSPGKEREFVAAITWNGGTTNYADSVKGRFAISRDNPPNTVYLQMNSLKPEDTAVYYCAKYPNNFWHNEAPDSWGRGTQVTVS
notes: as for B22
B29: GST-7 (VHH)
VHH: QVTLVESGGGLVQAGGSLGLSCTASGHTFNPYAMAWFRQAPGKEREFVAAIGWRVGTTYYTDSVKGRFTISADNAKNTAYLQMNSLKPEDTAVYYCAAGFGRSPSNYDYWGQGTQVTVS
notes: as for B22

Target: tdTomato
Assay: SPR; Biacore 8K; antigen immobilised on CM5 chip by amine coupling at 1 ug/ml (tdTomato) or 5 ug/ml (GST, IgGs) in 10 mM sodium acetate pH 5.5; nanobody injected in single-cycle kinetics at 0.1-10 nM; 20 mM Na-Hepes pH 7.4, 150 mM NaCl, 0.05% Tween 20; Langmuir 1:1 model, RIgG-1 and GIgG-4 fit to a two-step binding model
Conditions: not given

First: B1
Second: B2
The Kd of the first is 24-fold higher: 0.084 nM for the first, 0.0035 nM for the second.

Going from B3 to B4, the Kd rises from 0.028 nM to 0.052 nM (1.9-fold). The first binds more tightly here.

Compared with B5, B6 is lower in Kd: 0.044 nM for the first, less than 0.018 nM for the second. The second binds more tightly here.

Going from B7 to B8, the Kd rises from 0.0059 nM to 0.057 nM (9.7-fold).

In the case of B9, the Kd is reported as 0.037 nM.

Target: GFP [GFP: P42212]
Assay: SPR; GFP immobilised by EDC/NHS coupling (ProteOn XPR36, GLC chip, 5 ug/ml in 10 mM sodium acetate pH 5.0; or Biacore 8K, CM5 chip, 5 ug/ml, pH 5.5); nanobody as analyte; 20 mM Na-Hepes pH 7.4, 150 mM NaCl, 0.05% Tween 20; Langmuir binding model
Conditions: not given

Compared with B10, B11 is 18-fold lower in Kd: 3.7 nM for the first, 0.21 nM for the second. The second binds more tightly here.

Compared with B12, B13 is 100-fold higher in Kd: 0.009 nM for the first, 0.92 nM for the second.

Going from B14 to B15, the Kd rises from less than 0.00014 nM to 0.083 nM. The first binds more tightly here.

Compared with B16, B17 is lower in Kd: 0.3 nM for the first, less than 0.00089 nM for the second.

Compared with B18, B19 is 210-fold lower in Kd: 27 nM for the first, 0.13 nM for the second. The second binds more tightly here.

B20 and B21 are within 1.5-fold of each other in Kd: 0.021 nM for the first, 0.016 nM for the second.

Target: T1, GST (Schistosoma japonicum (assumed, …, UniProt P08515 = GST))
T1 construct: GST (glutathione S-transferase), the expression fusion protein tag; the methods describe only the production of GST-TEV protease; the 'GST' immobilised for SPR may be that fusion
T1 sequence (P08515 whole entry, looked up, the tested form may be a part): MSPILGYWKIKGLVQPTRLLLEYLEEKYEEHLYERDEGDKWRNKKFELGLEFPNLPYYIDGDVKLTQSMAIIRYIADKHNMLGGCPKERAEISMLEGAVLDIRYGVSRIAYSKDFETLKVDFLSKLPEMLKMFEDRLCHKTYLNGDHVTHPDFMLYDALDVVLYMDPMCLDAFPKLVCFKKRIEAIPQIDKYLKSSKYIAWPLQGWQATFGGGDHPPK
Assay: SPR; Biacore 8K; antigen immobilised on CM5 chip by amine coupling at 1 ug/ml (tdTomato) or 5 ug/ml (GST, IgGs) in 10 mM sodium acetate pH 5.5; nanobody injected in single-cycle kinetics at 0.1-10 nM; 20 mM Na-Hepes pH 7.4, 150 mM NaCl, 0.05% Tween 20; Langmuir 1:1 model, RIgG-1 and GIgG-4 fit to a two-step binding model
Conditions: both partners purified

First: B22
Second: B23
The Kd of the first is 2.7-fold higher: 0.35 nM for the first, 0.13 nM for the second.

B24 and B25 are within 1.5-fold of each other in Kd: 0.085 nM for the first, 0.064 nM for the second.

Compared with B26, B27 is 1.7-fold lower in Kd: 0.26 nM for the first, 0.15 nM for the second. The second binds more tightly here.

B28 and B29 are within 1.5-fold of each other in Kd: 0.13 nM for the first, 0.17 nM for the second.
